Assay [1] has as its target T1, SG115v2 (human, UniProt P01857 1-328 = IgG part).
T1 construct: Carries the CH3 modifications of SG115 (Leu428, Ala434, Arg438, Glu440, EU); Construct used in the ELISA is not described beyond the constant region; also called modified IgG heavy chain constant region SG115v2
Put plainly: ELISA, OD405 against dose (ng/mL, log axis 1-100). In general terms: In an ELISA, binding on a coated surface is turned into a signal by an enzyme label.

Assay [2] concerns the target T2, Glm (human, UniProt P01857 1-328 = IgG part).
T2 construct: Construct used in the ELISA is not described beyond the constant region; also called G1m
The assay can be described thus: ELISA, OD405 against dose (ng/mL, log axis 1-100).

Assay [3] has as its target T3, SG115 (human, UniProt P01857 1-328 = IgG part).
T3 construct: also called modified IgG heavy chain constant region SG115
The assay can be described thus: ELISA, OD405 against dose (ng/mL, log axis 1-100).

For assay [4], the target named is T4, G4d (human, UniProt P01861 1-325 = IgG part).
T4 construct: Construct used in the ELISA is not described beyond the constant region
The assay can be described thus: ELISA, OD405 against dose (ng/mL, log axis 1-100).

For assay [5], the target named is T5, SG115v1 (human, UniProt P01857 1-328 = IgG part).
T5 construct: Carries the CH2 modifications of SG115 (Arg235, Arg236, Lys239, EU); Construct used in the ELISA is not described beyond the constant region; also called modified IgG heavy chain constant region SG115v1
Put plainly: ELISA, OD405 against dose (ng/mL, log axis 1-100).

Assay [6] addresses T1, SG115v2. Put plainly: ELISA, OD405 against dose (ng/mL, log axis 1-100). The source holds these as a separate data set.
Assay [7] addresses T2, Glm. Put plainly: ELISA, OD405 against dose (ng/mL, log axis 1-100). This is another data set of the same source.
The target of assay [8] is T3, SG115. The assay can be described thus: ELISA, OD405 against dose (ng/mL, log axis 1-100). The source holds these as a separate data set.
Assay [9] addresses T4, G4d. The assay can be described thus: ELISA, OD405 against dose (ng/mL, log axis 1-100). The source holds these as a separate data set.
Assay [10] concerns the target T5, SG115v1. The assay can be described thus: ELISA, OD405 against dose (ng/mL, log axis 1-100). This is another data set of the same source.
The target of another assay is T6, Anti-IL-8 Antibody.
T6 construct: also called anti-human IL-8 antibody; Fc-Mutated Antibody
The assay can be described thus: SPR (Biacore T200), 25 C, pH 7.4; SKA antibody captured by anti-rabbit IgG, Anti-IL-8 Antibody injected 0-800 nM. How it is done:
To confirm the binding ability of Anti Fc-Mutation Antibodies that show selective binding to SG115v1, KD values of Anti Fc-Mutation Antibodies against Anti-IL-8 Antibody at pH 7.4 were determined at 25 degrees C. using Biacore T200 instrument (GE Healthcare). Sequence of Fc region of Anti-IL-8 Antibody has high similarity to that of Anti-hC5 Antibody.
Anti-rabbit IgG (Abbexa) was immobilized onto FC1 and 2 of a CMS sensor chip using an amine coupling kit (GE Healthcare). For the immobilization of anti-rabbit IgG, HBS-EP+, pH7.4 (GE Healthcare) buffer was used as running buffer. After the immobilization, running buffer was changed to Phosphate pH7.4 buffer (50 mM phosphate buffer containing 150 mM NaCl and 0.05 w/v % P-20, pH 7.4). Each Anti Fc-Mutation Antibody was captured onto FC2 of the sensor chip by anti-rabbit IgG. The amount of Anti Fc-Mutation Antibody to be captured was adjusted so that the number of resonance units (RU) was 100. Anti-IL-8 Antibody was injected at 0, 100, 400, and 800 nM at 10 micro L/min. Sensor surface was regenerated after each cycle with 10 mM Glycine-HCl, pH2.0, which was injected at a flow rate of 30 micro L/min. KD values were obtained using Biacore T200 Evaluation software, version 2.0 (GE Healthcare).

Where two headings read alike, the source gives them in different places.

Data on nine molecules can be found in US20220195070A1 (Chugai, published 2022).

T4 sequence (P01861 1-325 S108P limits assumed): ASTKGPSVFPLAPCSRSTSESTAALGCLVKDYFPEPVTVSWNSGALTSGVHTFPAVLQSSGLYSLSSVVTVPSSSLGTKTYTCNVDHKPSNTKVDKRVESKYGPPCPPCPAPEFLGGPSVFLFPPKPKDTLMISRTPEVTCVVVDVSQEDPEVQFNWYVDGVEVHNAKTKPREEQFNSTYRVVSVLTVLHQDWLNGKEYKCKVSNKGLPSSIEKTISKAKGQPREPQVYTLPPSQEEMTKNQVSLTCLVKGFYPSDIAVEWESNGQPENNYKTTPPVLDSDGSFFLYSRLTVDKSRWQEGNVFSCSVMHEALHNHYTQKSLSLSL
T5 sequence (P01857 other isoform, or with tags, fused parts or gaps limits assumed): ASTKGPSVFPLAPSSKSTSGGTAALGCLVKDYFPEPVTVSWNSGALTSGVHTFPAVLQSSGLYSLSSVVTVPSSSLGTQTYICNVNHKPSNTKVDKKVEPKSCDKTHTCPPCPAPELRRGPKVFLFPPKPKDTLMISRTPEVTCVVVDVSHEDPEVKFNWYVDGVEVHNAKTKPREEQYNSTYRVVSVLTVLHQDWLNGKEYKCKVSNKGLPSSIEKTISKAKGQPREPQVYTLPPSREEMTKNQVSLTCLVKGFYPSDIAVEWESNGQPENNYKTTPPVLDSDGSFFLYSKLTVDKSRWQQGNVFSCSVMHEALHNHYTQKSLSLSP
T3 sequence (P01857 other isoform, or with tags, fused parts or gaps limits assumed): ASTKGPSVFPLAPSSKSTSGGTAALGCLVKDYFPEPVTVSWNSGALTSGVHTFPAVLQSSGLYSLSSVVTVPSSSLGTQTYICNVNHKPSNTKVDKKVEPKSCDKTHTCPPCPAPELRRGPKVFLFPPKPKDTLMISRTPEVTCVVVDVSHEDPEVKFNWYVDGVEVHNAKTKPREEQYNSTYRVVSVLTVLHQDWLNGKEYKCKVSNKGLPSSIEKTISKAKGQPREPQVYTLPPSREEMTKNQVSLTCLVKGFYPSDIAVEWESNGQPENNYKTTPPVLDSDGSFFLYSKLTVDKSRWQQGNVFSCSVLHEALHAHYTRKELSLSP
T2 sequence (P01857 1-328 D239E/L241M limits assumed): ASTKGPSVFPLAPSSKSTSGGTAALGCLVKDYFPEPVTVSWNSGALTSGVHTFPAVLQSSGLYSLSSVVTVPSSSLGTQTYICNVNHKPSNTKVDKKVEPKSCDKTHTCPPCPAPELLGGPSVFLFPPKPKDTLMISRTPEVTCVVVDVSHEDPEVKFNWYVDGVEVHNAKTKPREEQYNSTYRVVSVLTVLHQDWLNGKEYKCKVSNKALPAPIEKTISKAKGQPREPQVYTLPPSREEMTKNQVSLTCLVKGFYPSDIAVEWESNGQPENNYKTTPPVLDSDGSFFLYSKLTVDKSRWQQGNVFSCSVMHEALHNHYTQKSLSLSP
T6 sequence (constant, as listed by the source limits assumed): as the sequence (P01857 1-328 D239E/L241M limits assumed) above, with L118R, G119R, A210G, A213S, P214S, M311L, N317A, Y319T, Q321R, S323E counted along it
T1 sequence (P01857 other isoform, or with tags, fused parts or gaps limits assumed): as the sequence (P01857 1-328 D239E/L241M limits assumed) above, with A210G, A213S, P214S, M311L, N317A, Q321R, S323E counted along it

B1: SKA0117 (antibody, V domains shown)
VH: QSLEESGGDLVKPEGSLTLTCTASGFSFSSSHYMCWVRQAPGKGLEWIACIYAGSSDNTYYASWAKGRFTISKTSSTTVTLQMTSLTAADTATYFCARDTYGYVGYASAGGFFNLWGPGTLVTVSS
VL: ALVMTQTPASVSAAVGGTVTINCQASHNIYSVLAWYQQKPGQRPRLLIYGASNLESGVPSRFKGSGSGTEYTLTISDLECDDAATYYCQSAYYSSSTGDNAFGGGTEVVVKG
notes: Recombinant rabbit monoclonal from B-cell cloning, expressed in FreeStyle 293-F cells; the first screen used B-cell culture supernatant; also called Anti-SG115 Antibody; rabbit Anti Fc-Mutation Antibody
As to B1, the binding result in the assay with SG115v2 [1] is given as “binds”; in the assay with Glm [2], “no binding (tested: about 60 ng/mL)”; with SG115 [3], “binds”; in the assay with G4d [4] it was “no binding (tested: about 60 ng/mL)”; in the assay with SG115v1 [5] it was “no binding (tested: about 60 ng/mL)”.

B2: SKA0141 (antibody, V domains shown)
VH: QSLEESGGDLVKPGASLTLTCTASGFSFSSSYYMCWVRQAPGKGLEWIACIYAGSSGSTYYASWAKGRFTISKTSSTTVTLQMTSLTAADTATYFCARDGDENMLVGGYFNLWGPGTLVTVSS
VL: ALVMTQTPSSVSAAVGGTVTINCQASHNIYSNLAWYQQKPGQRPKLLIYGASNLESGVPSRFKGSGSGTEYTLTISDLECDDAATYYCQSAYYSSNAGYNAFGGGTEVVVKG
notes: as for B1
With B2, the binding result is on record as “binds” with SG115v2 [1]; “no binding (tested: about 60 ng/mL)” with Glm [2]; “binds” in the assay with SG115 [3]; “no binding (tested: about 60 ng/mL)” in the assay with G4d [4]; “no binding (tested: about 60 ng/mL)” with SG115v1 [5].

B3: SKA0001 (antibody, V domains shown)
VH: QSVEESGGRLVTPGTPLTLTCTVSGFSLSYYAMNWVRQAPGKGLEWIGIIGISGGTYYASWAKGRFTISKSSSTTVDLKMTSPTTEDTATYFCARGGSAWGDLWGQGTLVTVSS
VL: DIVMTQTPSSVSAAVGGTVTINCQASQSISRLLAWYQQKPGQPPKVLMHDASDLASGVPSRFKGSGSGTEYTLTISDLECADAATYYCQSYYWGSSGDIGYPFGGGTEVVVKG
notes: as for B1
On to B3, for which the binding result in the assay with SG115v2 [6] is listed as “binds”; in the assay with Glm [7], “no binding (tested: about 60 ng/mL)”; with SG115 [8], “binds”; in the assay with G4d [9], “no binding (tested: about 60 ng/mL)”; with SG115v1 [10] it was “no binding (tested: about 60 ng/mL)”.

B4: SKA0009 (antibody, V domains shown)
VH: QSVEESGGRLVTPGTSLTLTCTVSGIDLSSYGMGWVRQAPGMGLEYIGIIYAAGRTYYASWVKGRFIISKTSTTVDLEMTSLTTEDTATYFCARHGSWYAGMDLWGPGTLVTVSS
VL: AIEMTQTPSPVSAAVGGTVSINCQASEDIENYFAWYQQKPGQPPKLLIYDASELASGVPSRFSGSGSGTDFTLTISGVQCDDAATYYCQHADYAASSENTFGGGTEVVVKG
notes: as for B1
By Kd is commonly meant the equilibrium constant for the complex coming apart. Low values mean higher affinity, high ones lower affinity. For orientation: koff means the first-order rate constant of dissociation. Read a low koff as slow dissociation. The term kon denotes the second-order rate constant of association. Higher therefore signals fast association. Regarding B4, the binding result with SG115v2 [6] is “no binding (tested: about 60 ng/mL)”; with Glm [7], “no binding (tested: about 60 ng/mL)”; with SG115 [8] it was “binds”; with G4d [9] it was “no binding (tested: about 60 ng/mL)”; with SG115v1 [10], “binds”. In addition, the affinity with Anti-IL-8 Antibody, expressed as Kd, was 36.2 nM. Besides, in the assay with Anti-IL-8 Antibody, the koff is 0.000904 s⁻¹. The molecule further yielded a kon with Anti-IL-8 Antibody of 25000 M⁻¹ s⁻¹.

B5: SKA0046 (antibody, V domains shown)
VH: QEQLVESGGGLVQPEGSLTLTCTASGFSLSSSNYMWWVRQAPGKGLEWIACIHASSSGDTYYANWAKGRFTISKTSSTTVTLQMTSLTAADTATYFCARGGYIYGDGGYNGVAGFSLWGPGTLVTVSS
VL: DVVMTQTPASVSEPVGGTVTIKCQASETIGNALAWYQQKPGQRPKLLIYGASNLESGVPSRFKGSGSGTEFTLTISDVQCDDAATYYCQSIYYSSSADTFFFPFGGGTEVVVKG
notes: as for B1
With B5, the binding result with SG115v2 [6] was “no binding (tested: about 60 ng/mL)”; with Glm [7], “no binding (tested: about 60 ng/mL)”; with SG115 [8] it was “binds”; with G4d [9], “no binding (tested: about 60 ng/mL)”; in the assay with SG115v1 [10] it was “binds”. Besides, the affinity with Anti-IL-8 Antibody, expressed as Kd, was 49.6 nM. The molecule also registered a koff in the assay with Anti-IL-8 Antibody of 0.00209 s⁻¹. The same molecule showed a kon in the assay with Anti-IL-8 Antibody of 42000 M⁻¹ s⁻¹.

B6: SKA0027 (antibody, V domains shown)
VH: QEQLVESGGGLVQPEGSLTLTCTASGFSFSSSDYMCWVRQAPGKGLEWIGCIYTGSGSTYYASWAKGRFTISKTSSTTVTLQMTSLTAADTATFFCARRGDSYSNYSFKLWGPGTLVTVSS
VL: AFELTQTPASVEAAVGGTVTIKCQASQNIYSNLAWYQQKPGQPPKLLIYTASSLASGVSSRFKGSGSGTEFTLTISDLECDDAATYYCQCTYINNGYGNTFGGGTEVVVKG
notes: as for B1
Turning to B6, the binding result is recorded as “binds” in the assay with SG115v2 [6]; “no binding (tested: about 60 ng/mL)” with Glm [7]; “binds” with SG115 [8]; “no binding (tested: about 60 ng/mL)” in the assay with G4d [9]; “no binding (tested: about 60 ng/mL)” with SG115v1 [10].

B7: SKA0028 (antibody, V domains shown)
VH: QSVEESGGRLVTPGTPLTLTCTASGFTISSYHMSWVRQAPGKGLEWIGIIHGSGNMWYASWAKGRFTISRTSTTVDLEITSPTTEDTATYFCARIRFWASSNYYYFYLWGQGTLVTVSS
VL: ALVMTQTPASVSEPVGGTVTINCQASQNIYSNLAWYQQKPGQRPRLLIYGASNLESGVPSRFRGSGSGTEFTLTISDLECADAATYYCQSAYWGNNNDGAFGGGTEVVVKG
notes: as for B1
Take B7: the binding result is on record as “binds” in the assay with SG115v2 [6]; “no binding (tested: about 60 ng/mL)” with Glm [7]; “binds” with SG115 [8]; “no binding (tested: about 60 ng/mL)” with G4d [9]; “no binding (tested: about 60 ng/mL)” with SG115v1 [10].

B8: SKA0171 (antibody, V domains shown)
VH: QSLEESGGGLVQPEGSLTLSCTASGFSFSSSYYMCWVRQAPGKGLEWIACIYGGNSVITYYANWAKGRFTISETSSTTVTLQMTSLTAADTATYFCAREVHYDYLYTTYGYANLWGPGTLVTVSS
VL: AIKMTQTPASVSAVVGGTVTINCQASETIYSGLAWYQQKPGQPPKLLIYDTANLETGVSSRFKGSGSGTEYTLTISDLECDDAATYFCLYAYYSGGSADNAFGGGTEVVVKG
notes: as for B1
Regarding B8, the binding result with SG115v2 [1] is recorded as “binds”; in the assay with Glm [2], “no binding (tested: about 60 ng/mL)”; with SG115 [3], “binds”; with G4d [4] it was “no binding (tested: about 60 ng/mL)”; in the assay with SG115v1 [5], “no binding (tested: about 60 ng/mL)”.

B9: SKA0016 (antibody, V domains shown)
VH: QEQLVESGGGLVQPEGSLTLTCTASGFSFSSSDYMCWVRQAPGKGLEWIACIYIGSNGDTFYASWAKGRFTISKTSSTTVTLQMTSLTAADTATYFCARDSRRADDYGTRLDLWGQGTLVTVSS
VL: DIVMTQTPSSVSAAVGGTVTIKCQASQNIYRNLAWYQQKPGQPPKLLIYQASKLESGVPSRFKGSGSGTEFTLTISDLDCDDAASYYCQSISYISSGDTFFWAFGGGTEVVVKG
notes: as for B1
As to B9, the binding result is on record as “no binding (tested: about 60 ng/mL)” with SG115v2 [6]; “no binding (tested: about 60 ng/mL)” in the assay with Glm [7]; “binds” in the assay with SG115 [8]; “no binding (tested: about 60 ng/mL)” with G4d [9]; “binds” with SG115v1 [10]. The same molecule yielded a Kd in the assay with Anti-IL-8 Antibody of 60 nM. Besides, in the assay with Anti-IL-8 Antibody, the koff came out at 0.00071 s⁻¹. In the assay with Anti-IL-8 Antibody, this molecule came in with a kon of 11800 M⁻¹ s⁻¹.
